Measured values published in PMC4681293.

Target: IFP2.0 (Deinococcus radiodurans)
Assay: SEC

**Q.** IFP2.0 was tested. Which stoichiometry N did it give?
**A.** 2
